According to patent publication US20180291110A1 (Hoffmann-La Roche, published 2018):

Target: T1, human transferrin receptor (recombinant, for surface plasmon resonance) (human, UniProt P02786 89-760)
T1 construct: also called huTfR; human transferrin receptor-biotinylated
Assay: SPR 25C

T1 sequence (P02786 89-760 limits assumed): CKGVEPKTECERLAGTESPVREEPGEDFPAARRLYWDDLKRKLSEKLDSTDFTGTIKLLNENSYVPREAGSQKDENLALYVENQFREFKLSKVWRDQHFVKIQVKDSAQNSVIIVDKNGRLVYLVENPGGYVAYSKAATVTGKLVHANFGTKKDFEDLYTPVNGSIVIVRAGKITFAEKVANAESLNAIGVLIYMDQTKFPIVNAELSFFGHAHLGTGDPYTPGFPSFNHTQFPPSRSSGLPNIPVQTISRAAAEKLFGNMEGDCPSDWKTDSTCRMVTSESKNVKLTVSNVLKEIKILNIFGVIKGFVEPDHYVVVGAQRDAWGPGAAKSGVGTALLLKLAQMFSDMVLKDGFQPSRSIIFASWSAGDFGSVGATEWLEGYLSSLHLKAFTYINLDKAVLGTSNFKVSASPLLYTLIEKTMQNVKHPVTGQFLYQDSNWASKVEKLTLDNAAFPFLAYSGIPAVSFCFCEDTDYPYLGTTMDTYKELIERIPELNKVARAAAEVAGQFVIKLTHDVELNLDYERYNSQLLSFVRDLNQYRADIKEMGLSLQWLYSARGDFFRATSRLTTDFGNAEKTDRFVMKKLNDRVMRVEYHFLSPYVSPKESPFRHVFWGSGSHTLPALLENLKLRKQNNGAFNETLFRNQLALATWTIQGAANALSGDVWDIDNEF

Binder	koff [s⁻¹]
2/99 VH8/VL5 (antibody, V domains shown) VH: QQLVETGGGLIQPGGSLRLSCAASGFSLSSYAMSWVRQAPGKGLEWIGYIWSGGSTDYASWAKGRFTISKTSTTLYLQMNSLRAEDTAVYYCARRYGTSYPDYGDANGFDPWGQGTLVTVSS VL: DIQMTQSPSSLSASVGDRVTITCRASQSISSYLSWYQQKPGKAPKLLIYRASTLASGVPSRFSGSGSGTDFTLTISSLQPEDFATYYCQQSYSSSNVDNTFGGGTKVEIK	0.00107
2/99 VH6/VL5 (antibody, V domains shown) VH: QQLVETGGGLIQPGGSLRLSCAASGFSLSSYAMSWVRQAPGKGLEWIGYIWSGGSTDYADSVKGRFTISRDNSKNTLYLQMNSLRAEDTAVYYCARRYGTSYPDYGDANGFDPWGQGTLVTVSS VL: DIQMTQSPSSLSASVGDRVTITCRASQSISSYLSWYQQKPGKAPKLLIYRASTLASGVPSRFSGSGSGTDFTLTISSLQPEDFATYYCQQSYSSSNVDNTFGGGTKVEIK	0.00166
2/99 VH12/VL5 (antibody, V domains shown) VH: QVQLQESGPGLVKPSETLSLTCTVSGFSLSSYAMSWIRQPPGKGLEWIGYIWSGGSTDYNPSLKSRVTISVDTSKNQFSLKLSSVTAADTAVYYCARRYGTSYPDYGDANGFDPWGQGTLVTVSS VL: DIQMTQSPSSLSASVGDRVTITCRASQSISSYLSWYQQKPGKAPKLLIYRASTLASGVPSRFSGSGSGTDFTLTISSLQPEDFATYYCQQSYSSSNVDNTFGGGTKVEIK	0.00582
2/99 VH22/VL4 (antibody, V domains shown) VH: QSMQESGPGLVKPSQTLSLTCTVSGFSLSSYAMSWVRQHPGKGLEWIGYIWSGGSTDYASWAKSRVTISVDTSKNQVSLKLSSVTAADTAVYYCARRYGTSYPDYGDANGFDPWGQGTLVTVSS VL: AYQMTQSPSSLSASVGDRVTITCRASQSISSYLSWYQQKPGKAPKLLIYRASTLASGVPSRFSGSGSGTDFTLTISSLQPEDFATYYCQQSYSSSNVDNTFGGGTKVEIK	0.00118
2/99 VH11/VL5 (antibody, V domains shown) VH: QQLLESGGGLVQPGGSLRLSCAASGFSLSSYAMSWVRQAPGKGLEWVGYIWSGGSTDYADSVKGRFTISRDNSKNTLYLQMNSLRAEDTAVYYCARRYGTSYPDYGDANGFDPWGQGTLVTVSS VL: DIQMTQSPSSLSASVGDRVTITCRASQSISSYLSWYQQKPGKAPKLLIYRASTLASGVPSRFSGSGSGTDFTLTISSLQPEDFATYYCQQSYSSSNVDNTFGGGTKVEIK	0.00456
2/99 VH20/VL4 (antibody, V domains shown) VH: QSMQESGPGLVKPSQTLSLTCTVSGFSLSSYAMSWIRQHPGKGLEWIGYIWSGGSTDYAPSLKSRVTISVDTSKNQVSLKLSSVTAADTAVYYCARRYGTSYPDYGDANGFDPWGQGTLVTVSS VL: AYQMTQSPSSLSASVGDRVTITCRASQSISSYLSWYQQKPGKAPKLLIYRASTLASGVPSRFSGSGSGTDFTLTISSLQPEDFATYYCQQSYSSSNVDNTFGGGTKVEIK	0.00436
2/99 VH23-DANG/VL4 (antibody, V domains shown) VH: QSMQESGPGLVKPSQTLSLTCTVSGFSLSSYAMSWIRQHPGKGLEWIGYIWSGGSTDYASWAKSRVTISKTSTTVSLKLSSVTAADTAVYYCARRYGTSYPDYGDANGFDPWGQGTLVTVSS VL: AYQMTQSPSSLSASVGDRVTITCRASQSISSYLSWYQQKPGKAPKLLIYRASTLASGVPSRFSGSGSGTDFTLTISSLQPEDFATYYCQQSYSSSNVDNTFGGGTKVEIK	0.000761

Further lines, results first:

koff [s⁻¹]	Binder
0.001	2/99 VH19/VL4 (antibody, V domains shown) VH: QSMQESGPGLVKPSQTLSLTCTVSGFSLSSYAMSWIRQHPGKGLEWIGYIWSGGSTDYAPSLKSRVTISVDTSKNQFSLKLSSVTAADTAVYYCARRYGTSYPDYGDANGFDPWGQGTLVTVSS VL: AYQMTQSPSSLSASVGDRVTITCRASQSISSYLSWYQQKPGKAPKLLIYRASTLASGVPSRFSGSGSGTDFTLTISSLQPEDFATYYCQQSYSSSNVDNTFGGGTKVEIK
0.00146	2/99 VH21/VL4 (antibody, V domains shown) VH: QSMQESGPGLVKPSQTLSLTCTVSGFSLSSYAMSWIRQHPGKGLEWIGYIWSGGSTDYASWAKSRVTISVDTSKNQVSLKLSSVTAADTAVYYCARRYGTSYPDYGDANGFDPWGQGTLVTVSS VL: AYQMTQSPSSLSASVGDRVTITCRASQSISSYLSWYQQKPGKAPKLLIYRASTLASGVPSRFSGSGSGTDFTLTISSLQPEDFATYYCQQSYSSSNVDNTFGGGTKVEIK
0.0035	2/99 VH9/VL5 (antibody, V domains shown) VH: QQLLESGGGLVQPGGSLRLSCAASGFTFSSYAMSWVRQAPGKGLEWVGYIWSGGSTDYADSVKGRFTISRDNSKNTLYLQMNSLRAEDTAVYYCAKRYGTSYPDYGDANGFDPWGQGTLVTVSS VL: DIQMTQSPSSLSASVGDRVTITCRASQSISSYLSWYQQKPGKAPKLLIYRASTLASGVPSRFSGSGSGTDFTLTISSLQPEDFATYYCQQSYSSSNVDNTFGGGTKVEIK
0.00253	2/99 VH5/VL5 (antibody, V domains shown) VH: QSMEETGGGLIQPGGSLRLSCAASGFSLSSYAMSWVRQAPGKGLEWVGYIWSGGSTDYADSVKGRFTISRDNSKNTLYLQMNSLRAEDTAVYYCARRYGTSYPDYGDANGFDPWGPGTLVTVSS VL: DIQMTQSPSSLSASVGDRVTITCRASQSISSYLSWYQQKPGKAPKLLIYRASTLASGVPSRFSGSGSGTDFTLTISSLQPEDFATYYCQQSYSSSNVDNTFGGGTKVEIK
0.00271	2/99 VH1/VL5 (antibody, V domains shown) VH: VQLVETGGGLIQPGGSLRLSCAASGFSLSSYAMSWVRQAPGKGLEWVGYIWSGGSTDYADSVKGRFTISRDNSKNTLYLQMNSLRAEDTAVYYCARRYGTSYPDYGDANGFDPWGQGTLVTVSS VL: DIQMTQSPSSLSASVGDRVTITCRASQSISSYLSWYQQKPGKAPKLLIYRASTLASGVPSRFSGSGSGTDFTLTISSLQPEDFATYYCQQSYSSSNVDNTFGGGTKVEIK
0.00135	2/99 VH7/VL5 (antibody, V domains shown) VH: QQLVETGGGLIQPGGSLRLSCAASGFSLSSYAMSWVRQAPGKGLEWIGYIWSGGSTDYASWAKGRFTISRDNSKNTLYLQMNSLRAEDTAVYYCARRYGTSYPDYGDANGFDPWGQGTLVTVSS VL: DIQMTQSPSSLSASVGDRVTITCRASQSISSYLSWYQQKPGKAPKLLIYRASTLASGVPSRFSGSGSGTDFTLTISSLQPEDFATYYCQQSYSSSNVDNTFGGGTKVEIK
0.00218	2/99 VH13/VL5 (antibody, V domains shown) VH: QVQLQESGPGLVKPSETLSLTCTVSGFSLSSYAMSWIRQPPGKGLEWIGYIWSGGSTDYNPSLKSRVTISVDTSKNQVSLKLSSVTAADTAVYYCARRYGTSYPDYGDANGFDPWGQGTLVTVSS VL: DIQMTQSPSSLSASVGDRVTITCRASQSISSYLSWYQQKPGKAPKLLIYRASTLASGVPSRFSGSGSGTDFTLTISSLQPEDFATYYCQQSYSSSNVDNTFGGGTKVEIK
0.00262	2/99 VH2/VL5 (antibody, V domains shown) VH: EVQLVETGGGLIQPGGSLRLSCAASGFSLSSYAMSWVRQAPGKGLEWVGYIWSGGSTDYADSVKGRFTISRDNSKNTLYLQMNSLRAEDTAVYYCARRYGTSYPDYGDANGFDPWGQGTLVTVSS VL: DIQMTQSPSSLSASVGDRVTITCRASQSISSYLSWYQQKPGKAPKLLIYRASTLASGVPSRFSGSGSGTDFTLTISSLQPEDFATYYCQQSYSSSNVDNTFGGGTKVEIK
